Test results: patent US20100209956A1

Tests used:
Assay in all cases: cell-based or functional assay
[1] = target: pro-HGF (single-chain hepatocyte growth factor) (UniProt P14210)
[2] = target: Met receptor on A549 lung carcinoma cells (UniProt P08581)
[3] = target: soluble form of hepsin encompassing the entire extracellular domain (Arg45-Leu417) and a C-terminal His8 tag (human) (UniProt P05981)
soluble form of hepsin encompassing the entire extracellular domain (Arg45-Leu417) and a C-terminal His8 tag (human), sequence (P05981 45-162 limits assumed, chain 1 of 2): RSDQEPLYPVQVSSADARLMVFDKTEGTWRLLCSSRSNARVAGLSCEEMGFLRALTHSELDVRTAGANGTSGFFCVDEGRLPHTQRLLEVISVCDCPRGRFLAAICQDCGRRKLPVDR
soluble form of hepsin encompassing the entire extracellular domain (Arg45-Leu417) and a C-terminal His8 tag (human), sequence (P05981 other isoform, or with tags, fused parts or gaps limits assumed, chain 2 of 2): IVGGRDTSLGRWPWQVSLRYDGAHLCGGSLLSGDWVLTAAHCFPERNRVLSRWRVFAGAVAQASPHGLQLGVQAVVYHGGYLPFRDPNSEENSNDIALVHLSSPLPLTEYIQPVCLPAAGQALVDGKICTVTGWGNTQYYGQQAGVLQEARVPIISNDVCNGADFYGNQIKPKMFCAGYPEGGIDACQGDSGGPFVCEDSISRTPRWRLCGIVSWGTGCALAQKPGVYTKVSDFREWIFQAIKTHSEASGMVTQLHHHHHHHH

Met receptor on A549 lung carcinoma cells, sequence (P08581 25-1390 limits assumed): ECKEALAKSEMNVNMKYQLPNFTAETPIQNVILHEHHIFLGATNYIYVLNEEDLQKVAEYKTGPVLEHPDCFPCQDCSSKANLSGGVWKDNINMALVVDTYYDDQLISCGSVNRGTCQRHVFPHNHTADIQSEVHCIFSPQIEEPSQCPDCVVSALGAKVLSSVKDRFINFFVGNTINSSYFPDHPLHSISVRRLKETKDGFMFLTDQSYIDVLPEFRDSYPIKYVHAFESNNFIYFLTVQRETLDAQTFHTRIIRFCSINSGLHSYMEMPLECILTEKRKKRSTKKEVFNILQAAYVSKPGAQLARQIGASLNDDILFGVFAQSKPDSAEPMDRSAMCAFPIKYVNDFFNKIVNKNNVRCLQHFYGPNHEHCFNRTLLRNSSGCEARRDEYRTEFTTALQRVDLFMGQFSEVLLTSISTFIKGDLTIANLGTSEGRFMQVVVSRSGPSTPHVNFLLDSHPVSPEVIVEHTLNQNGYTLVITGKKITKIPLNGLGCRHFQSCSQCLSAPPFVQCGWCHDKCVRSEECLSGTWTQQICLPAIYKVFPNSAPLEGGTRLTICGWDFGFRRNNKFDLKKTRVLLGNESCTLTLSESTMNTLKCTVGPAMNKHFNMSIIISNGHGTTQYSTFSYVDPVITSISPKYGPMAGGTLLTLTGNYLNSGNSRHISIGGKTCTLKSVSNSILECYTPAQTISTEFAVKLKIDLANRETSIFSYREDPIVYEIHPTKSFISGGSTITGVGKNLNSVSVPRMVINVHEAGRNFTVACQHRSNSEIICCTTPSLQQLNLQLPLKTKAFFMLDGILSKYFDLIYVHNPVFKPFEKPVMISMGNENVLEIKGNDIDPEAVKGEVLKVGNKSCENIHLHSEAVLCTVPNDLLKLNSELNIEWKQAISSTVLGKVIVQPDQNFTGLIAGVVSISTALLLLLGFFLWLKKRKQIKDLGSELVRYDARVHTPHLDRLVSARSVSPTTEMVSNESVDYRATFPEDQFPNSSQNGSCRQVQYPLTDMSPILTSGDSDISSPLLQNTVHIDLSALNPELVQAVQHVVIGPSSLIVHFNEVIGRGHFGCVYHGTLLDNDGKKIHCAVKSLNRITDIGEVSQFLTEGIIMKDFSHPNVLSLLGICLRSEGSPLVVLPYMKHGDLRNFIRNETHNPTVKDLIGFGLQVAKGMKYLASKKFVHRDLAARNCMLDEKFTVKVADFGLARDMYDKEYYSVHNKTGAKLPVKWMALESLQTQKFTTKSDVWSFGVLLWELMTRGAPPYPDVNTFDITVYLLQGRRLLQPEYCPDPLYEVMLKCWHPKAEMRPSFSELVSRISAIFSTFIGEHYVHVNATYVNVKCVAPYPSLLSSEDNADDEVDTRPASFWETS
pro-HGF (single-chain hepatocyte growth factor), sequence (P14210 32-728 limits assumed): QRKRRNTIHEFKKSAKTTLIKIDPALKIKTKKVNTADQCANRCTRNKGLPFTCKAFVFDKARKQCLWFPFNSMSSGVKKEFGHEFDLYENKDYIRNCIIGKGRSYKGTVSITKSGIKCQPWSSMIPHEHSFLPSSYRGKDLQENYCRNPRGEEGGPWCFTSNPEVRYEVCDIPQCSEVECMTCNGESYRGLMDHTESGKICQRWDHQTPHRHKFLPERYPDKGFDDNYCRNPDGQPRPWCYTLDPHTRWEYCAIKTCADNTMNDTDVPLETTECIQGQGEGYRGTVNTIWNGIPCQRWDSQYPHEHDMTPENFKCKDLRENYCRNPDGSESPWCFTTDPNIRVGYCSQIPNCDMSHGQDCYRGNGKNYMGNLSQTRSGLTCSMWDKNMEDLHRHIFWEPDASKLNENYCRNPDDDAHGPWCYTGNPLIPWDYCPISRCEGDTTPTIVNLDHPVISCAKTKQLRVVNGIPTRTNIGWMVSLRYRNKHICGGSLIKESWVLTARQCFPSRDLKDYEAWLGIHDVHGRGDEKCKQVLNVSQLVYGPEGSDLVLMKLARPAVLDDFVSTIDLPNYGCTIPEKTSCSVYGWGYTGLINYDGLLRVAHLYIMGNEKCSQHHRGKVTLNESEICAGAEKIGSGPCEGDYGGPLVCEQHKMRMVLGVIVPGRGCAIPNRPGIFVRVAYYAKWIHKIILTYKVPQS

| percent of unlabelled pro-HGF (0.3 mg/ml) converted into HGF by 40 nM enzyme [1] [%] | Met phosphorylation in a kinase receptor assay (KIRA) with A549 cells: concentration of maximal activity [2] [ng/mL] | Substance | other results |
| --- | --- | --- | --- |
| > 95 |  | HGFA (hepatocyte growth factor activator) comprising residues Val373-Arg407 (from UniProt Q04756 373-407) (enzyme) |  |
|  | 250 | HGFHGFA (HGF produced by activation of pro-HGF with HGFA) (from UniProt P14210 32-728; P14210 32-728) (ligand) |  |
|  | 250 | HGFhepsin (HGF produced by activation of pro-HGF with hepsin) (from UniProt P14210 32-728; P14210 32-728) (ligand) |  |
|  |  | soluble form of HAI-1B (sHAI-1B) comprising the entire extracellular domain (from UniProt O43278 36-465) | IC50, inhibition of hepsin enzymatic activity towards S2366 (amidolytic assay) [3]: 0.0211 µM |
| > 95 |  | soluble form of hepsin encompassing the entire extracellular domain (Arg45-Leu417) and a C-terminal His8 tag (from UniProt P05981 45-162; P05981 163-417) (enzyme) |  |
